Experiment: yeast display, Sf9 membrane polyspecificity reagent, FACS + sequencing; frameworks hold sequencing errors
How it was run: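 In a synthetic yeast display library (Saccharomyces cerevisiae BJ5465), nanobody expression was induced with galactose for 36–48 hours. FACS gates were set low and high (top ~1%) using anti-HA fluorescence for expression and streptavidin fluorescence for binding of the Sf9 membrane reagent. Each polyreactivity label is drawn from the gate of origin.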

Sequence	polyreactivity (PSR sort gate)
QVQLVESGVGLVQAGGSLRLSCAASGFTFPYYAMGWYIQAPGKERELVAAISSGGRTNYADSVKGRFTISRDNAKNTVYLQMNSLKPEDTAVYDCATRSYVFAWEFNYWGQVTQVTVSS	high polyreactivity
QVKLVESGGGLVHAGGSLRLICAASGFTFGEYAMVWSRQSPGKERELVAGISWSGGGTYYADSVKGRFTISRDNAKYTVYLQMNSLKPEDTAVYYCAAVLPSTSYKYDYWGQGTQVTVSS	low polyreactivity
QVHLVESGGGLVQAGGSLRLSCAASGSTFYRYAMGWYRQAPGKERELVAAITRSGGSTYYADSVKGRFTISRDNAKNTVYLLMNSLKPEDTAVYYCAADRYYVYTFYYWGQGTQVTVSS	high polyreactivity
QVQLVESGGGLVQAGGSLRLSCAASGRIFFHNAMGWYIQAPGKERELVATISWSGSSTYYADSVKGRFTISRDNAKNTVYLQMNSLKPEYTAVYYCNAVYGRFVVLRYDYWGQGTQVTVSS	high polyreactivity
QVQHVESGGGLDQAGGSLRLSCAASGRTFSYYTMGWYRQAPGKERELVARISNRGTNTYYADSVKGRFTISRDNSKNTVYLQMNSLKPEDTAVYYCAKYYYTSIVGYDSWGQGTQVTVSS	low polyreactivity
QVQLVESGGGLVQAGGSLRLSCAASGRTFYYYTMGWYRQAPGKERELVAAITWNGGSTYYADSVKGRFTISRDNAKNTVYLQMNSLKPEDTAVYYCNARWTWRYDYWGQGTQVTVSS	high polyreactivity
QVQLVESGGGLVQAGGSLRLSCAASGSIFGRNVMGWYRQAPGKERELVARITRGGSTNYADSVKGRFTISRDNAKNTVYLQMNRLQPEDTAVYYCAAGARQYRGVPDRYGYWGQGTQVTVSS	low polyreactivity
QVQLVESGGGLVQAGGSLRLSCASSGFIFAYNAMGWYRQAPGKERELVAAISRSGGSTRYADSVKGRFTISRDNAKNTVYLQMNSLIPEDTAVYYCAADWSDYWDWSWYDYWGQGTQVTVSS	high polyreactivity
QVQLVESGGGLVQAGGSLRLSCAASGFIFKSNAMGWYRQAPGKERELVAAITKRGGSTYYADSVKGRFTISRDNAKNTVYLQMNSLKPEDTAVYYCAVRKPYSRYGGFDYWGQGTQVTVSS	high polyreactivity
QVQLVESGGGLVQAGGSLRLSCAASGLTIWRYAMGWYRQAPGKEREFVATISQNGGRTYYADSVKGRFTISRDNAKNTVYLQMNSLKPEDTAVYYCAADDWRWGYDYWGQGTQVTVSS	high polyreactivity
QVQLVESGGGLVQAGGILRLSCAASGLIFKYNAMGWYRQAPGKERELVAAISTSGGSTYYADSVKGRFTISRDNAKNTVYLQMNSLKPEDTAVYYCNVAYIKTRLFRPYDYWGQGTQVTVSS	high polyreactivity
QGQLVESGGGLVQAGGSLRLSCAASGSIFWDNVMGWSRQAPGKERELVADIDSWDGGSTYYADSVKGRFTISRDNAKNTVYLQMHSRKPEDTAVYYCNTDVLWWRGGDDFWGQGTQVTVSS	low polyreactivity
QVQLVESGGGLVQAGGSLPLSCAASGSIFDGYAMGWYSQAPGKDRELDAGISKSGGRTYYADSVKGRFTISRDNAKNTVYLQMNSLKPEDTAVYYCATPGIRYDRVYRYDYWGQGTQVTVSS	high polyreactivity
QVQLVESGGGLVQAGGSLRLSCAASGSTFRYYVMGWYSQSPGKERELVAGISYRGGTTYYADSVKGRFTISRDNAKNTVYLQMYILKPEDTAVYYCNAETAAAQASYDRLYVLLDYWGQGTQVTVSS	low polyreactivity
QVQLVESGGGLVQAGGSLRLSCAASGSTFGRNAMGWYRQAPGKERELVAAISWRSTRTYYADSVKGRFTISRDNAKNTVYLQMNSLKPEDTAVYYCAAAWRIWWYHRGEFDYWGQGTQVTVSS	high polyreactivity
QVQLVESGGGLVQAGGSLRLSCAASGLTFPIYAMGWYRQAPGKEREYVAVITTSGGSTYYADSVKGRFTISRDNAKNTVYLQMNSLKPEDTAVYYCNARGIRHYYWGQGTQVTVSS	high polyreactivity
QVQRVESGGVLVQAGGSLRLSCAASGITFYVYAMGWYRQAPGKERELVASITRSVGITSYADSVKGRFTISRDNSKNTVYLQMNSLKQEDSAVYYCAAERSNLHYNIQGVGYWGQGTQVTVSS	low polyreactivity
QVQLVVSGGGLVQAGGSLRLSCAASGGTFGGYAMGWYRQAPGKERELVAVITQRGGSTSYADSVKGRFTISRDNAKNTVYLQLNSQKREDTAVYYCNASAWLVVARTRYGYWGQGTQVTVSS	low polyreactivity
QVQLVESGGGLVQAGGSLRLSCAASGNTFPLYAMGWYRQAPGKEREMVAAITSSAGSTYYADSVKGRFTISRDNAKNTVYLQMNSLKPEDTAVYYCNARRSDGKVVGYSYSHRNVEYWGQGTQVTVSS	low polyreactivity
QVQLVESGGGLVQAGGSLRLSCAASGRIISAYAMGWYRQAPGKERELVAAITGSGGSTYYADTVKGRFTISRDNAKKTVYLQMNSRKPEDTAVYYCAAKIDYPDARYFPYRYYYWGQGTQVTVSS	high polyreactivity
QFQLVESGGGLVQAGGSLRLSCAASGFTFIKYAMGWYRQAPGKEREFVATISWNGGNTYYADSVKGRFTISRDNAKNTVYLQMNSLKPEDTAVYYCAARRRAFGSTYNYWGQGTQVTVSS	high polyreactivity
QVQLVESGGGLVQAGGSLRLSCAASGSTFSYNAMGWYRQAPGKERELVAAIDRSVSTNYADSVKGRFTISRDNAKNTVYLQMNSLKPEDTAVYYCNARHPTDDIVIYDYWGQGTQVTVSS	low polyreactivity

Sequence	polyreactivity (PSR sort gate)
QVQLVESGGGLVQAGGSLRLSCAASGIIFTYYAMGWYRQAPGKERELVASISSSGTSTYYADSVKGRFTISRDNAKNTVYLQMNSLKPEDTAVYYCAADWTGSNGVDYWGQGTQVTVSS	low polyreactivity
QVQLQESGGGLVQAGGSLGCAASGNISTRSEMGWYRQSPGKEREFVATINSGGITNYADSVKGRFTISRDNAKNTVYLRMNSLKPEDTAVYYRAVYGYFSDPYDYWGQGTQVTVSS	low polyreactivity
QVQLVESGGGLVQAGGSLRLSCAASGFTFYWYAMGWYRQAPGKERELVAAITIGGSTYYADSVKGRFTISRDNAKNTVYLQMNSLKPEDTAVYYCNVYGYGTEYDYWGQGTQVTVSS	high polyreactivity
QVQLVESGGGLVQAGGSLRLSCAASGRTFRGNVMGWYRQAPGNEREFVAASTRSGSNTYYADSVKGRFTISRDYAKTTVYLQMNSLKPEDTAVYDCAKSVLLGYKRHDSWGQGTQVTVSS	high polyreactivity
QVQLVESGGGLVQAGGSLRLSCAASGFIFTQYAMGWYRQAPGKERELVAAISTSGGRTFYADSVKGRFTISRDNAKNTVYLQMNSLKPEDTAVYYCGARPGYLYDYWGQGTQVTVSS	high polyreactivity
QVQLVESGGGLVQAGGSLRLTCAASASNFVSYPMGWYRPAHGKERELVAAITSAGTTYYAYSVKGRFTISRDNAKNTVYLQMNTLKPEDTAVYYCNTDASFKRTRVSPETEYGYWGQGTQVTVSS	low polyreactivity
QVQLVESGGGLVQAGGSLRLSCAASGRIFRVNAMGWYRQAPGKERELVASITKSTGSTYYADSVKGRFTISRDNAKNTVYLQMNSLKPEDTAVYYCAKAASYPVRAFYYWGQGTQVTVSS	high polyreactivity
QVQLVESGGGLVQAGGSLRLSCAASGYIFALNAMGWYRPAPGKEWELVAAINDSGDSTYYADSVKGRFTISRDNAKNTVYLQMNSLKPEDTAVYYCAAGFSYEWCYPTFDYWGQGTQVTVSS	low polyreactivity
QVQLVASGGGLVQAGGSLRLSCAATGSIFYFYAMGWYRPAPWKERELVAAITDCGASTRYADSVKGRFTISRDNAKNTVYLQMNSLKPEDTAVYYCAAVRYHISYREYYWGQGTQVTESS	high polyreactivity
QVQLVESGGGLVQAGGSLRLSCAASGSIFVIYAMGWYRQAPGKERELVAAISWNGGSTFYADSVKGRFTISRDNAKNTVYLQMNSLKPDDTAVYDCNTVASYYRWKSYYYWGQGTQVTVSS	high polyreactivity
QVQLVESGGGLVQAGGSLRVSCAASGNIFVYNAMGWYRQAPGKERELVAAIDSGGSTYYADSVKGRFTISRDNAKNTVYLQMNSLKPEDTAVYYCAADYYSTYRTIYYYWGQGTQVTVSS	low polyreactivity
QVQLVESGGGLVQAGGSLRLSCAASGSTFPSYAMGGYRPAPGKERELVAAINRSGGSTYYADSVKGRFTISRDNAKNTVYLQMNSLKPEDTAVYYCATGLTTGGGYYWGQGTQVTVSS	high polyreactivity
QVQLVESGGGLVQAGGSLRLSCAASGFILYSYAMGWYRQAPGKERELVADITGTGGRTYYADSVKGRFTISRDNAKNTVYLQMNSLKPEDTAVYYCNKGPFFVFRTTRYYEYDYWGQGTQVTVSS	low polyreactivity
QVQLVESGGGLVQAGGSLRLSCAASGFTLDNYAIGWYRPAPGKERELVAASSWSGGRTYYADSVKGRFTISRDNAKNTVYLQMNSLKPEDTAVYYCYASPYGRKYGILADGDYWGQGTQVTVSS	high polyreactivity
QVQLVESGGGLLQAGGSLRLSCAASGSIFGYYAMGWYRQAPGKERELVAAISRSGGSTYYADSVKGRFTISRDNAKNTVYLQMNSLKPEDTAVYYCAADDYPYGNYYWGQGTQVTVSS	high polyreactivity
QVQHVESGGGLVQAGGSLRLSCAASGSTFPANAMGRYRQAPVKERELVAVISSGGRTYYADSVKGRFTISRDNAKNTVYLQLNSLKPEDTEVYYCAAGSYAGSGPSPWLEYWGQGTQVTVSS	high polyreactivity
QVQLVESGGGLVQAGGSLRLSCAASGRTFGAYTMGGYRQAPGKDRELVAAISSGTRTNYADSVKGRFTISRDNAKNTVYLQMNSLIPEDTAVYYCAATVLGHNRVYYWGQGTQVTVSS	low polyreactivity
QVQLVESGGGLVQAGGSLSLSCAASGFTLGYYAMGWYRQAPGKERELVAAITSGGGTNYADSVKGRFTISRDNAKNTVYLQMNSLKPEDTAVYYCAARARWIYGMYSWGQGTQVTVSS	low polyreactivity
QVQLVESGGGLVQAGGSLRLSCAASGSTFTGYTMGWYRQAPGKERELVAAITYRGGSTYYADSVKGRFTISRDNAKITDYLQMNSLIPEDTAVYYCAAVPEYYEYSPYDYWGQGTQVTVSS	low polyreactivity
QVQLVESGGGLVQAGGSLRLSCAASGSIFRSYAMGWYRQAPGNERELVAAITRSGGSTYYADSVKGRFTISRDNAKNTVYLQMNSLKPEDTAVYYCAAEYYSYTWGWGHGYWGQGTQVTVSS	high polyreactivity
QVQLVESGGGLVQAGGSLRLRCAASGFIYLKYDMGWYRQAPGKERELVDRITSTGGSTYYADSVKGRFTISRDNAKNTVYLQMNSLKPEDTAVYYCAAVYISRNFFGRARGDYWGQGTQVTVSS	low polyreactivity

Reference: the nanobody polyreactivity screen of Harvey et al. (2022)
